No end group written: not given here. *: point of attachment. Biotin = O=C1N[C@H]2[C@H](CS[C@H]2CCCCC(=O)*)N1

The target in one series is T1, His-PDK1_(1-556) (UniProt O15530 1-556).
T1 construct: also called full-length PDK1; PDK1 FL; source: Sf9 insect cells (Bac-to-Bac baculovirus), purified (Ni-NTA, gel filtration); not shown: His, N-terminal, kept; myc, N-terminal, kept
T1 sequence (looked up): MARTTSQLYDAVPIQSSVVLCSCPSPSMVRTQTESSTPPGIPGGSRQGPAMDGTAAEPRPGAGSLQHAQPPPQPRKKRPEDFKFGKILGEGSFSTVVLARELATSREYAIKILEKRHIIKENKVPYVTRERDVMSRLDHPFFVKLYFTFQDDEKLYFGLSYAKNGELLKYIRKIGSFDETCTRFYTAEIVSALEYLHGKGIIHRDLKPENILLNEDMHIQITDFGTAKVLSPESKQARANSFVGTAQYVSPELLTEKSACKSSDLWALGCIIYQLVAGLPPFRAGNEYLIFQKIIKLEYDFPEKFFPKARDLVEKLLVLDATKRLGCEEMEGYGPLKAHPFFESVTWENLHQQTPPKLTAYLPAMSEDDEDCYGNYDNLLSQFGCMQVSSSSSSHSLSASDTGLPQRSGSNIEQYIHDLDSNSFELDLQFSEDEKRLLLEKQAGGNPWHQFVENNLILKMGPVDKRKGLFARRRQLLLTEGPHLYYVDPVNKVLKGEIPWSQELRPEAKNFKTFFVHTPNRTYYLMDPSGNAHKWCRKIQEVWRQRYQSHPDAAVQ
Briefly: AlphaScreen or HTRF; His-PDK1_(1-556) and GST-PDK1_(360-556); nickel chelate-coated acceptor beads and GSH-coated donor beads; standard buffer 50 mM Tris-HCl pH 7.4, 100 mM NaCl, 2 mM DTT, 0.01% Tween-20, 0.1% BSA; 60 min at room temperature. Particulars: both partners purified. For orientation: Alpha assays give light when donor and acceptor beads are brought close together.

The target in a further series is T2, GST-PDK1_(1-556) (UniProt O15530 1-556).
T2 construct: source: HEK293 cells, transient transfection of pEBG2T plasmid, purified, dialyzed to remove GSH
T2 sequence (looked up): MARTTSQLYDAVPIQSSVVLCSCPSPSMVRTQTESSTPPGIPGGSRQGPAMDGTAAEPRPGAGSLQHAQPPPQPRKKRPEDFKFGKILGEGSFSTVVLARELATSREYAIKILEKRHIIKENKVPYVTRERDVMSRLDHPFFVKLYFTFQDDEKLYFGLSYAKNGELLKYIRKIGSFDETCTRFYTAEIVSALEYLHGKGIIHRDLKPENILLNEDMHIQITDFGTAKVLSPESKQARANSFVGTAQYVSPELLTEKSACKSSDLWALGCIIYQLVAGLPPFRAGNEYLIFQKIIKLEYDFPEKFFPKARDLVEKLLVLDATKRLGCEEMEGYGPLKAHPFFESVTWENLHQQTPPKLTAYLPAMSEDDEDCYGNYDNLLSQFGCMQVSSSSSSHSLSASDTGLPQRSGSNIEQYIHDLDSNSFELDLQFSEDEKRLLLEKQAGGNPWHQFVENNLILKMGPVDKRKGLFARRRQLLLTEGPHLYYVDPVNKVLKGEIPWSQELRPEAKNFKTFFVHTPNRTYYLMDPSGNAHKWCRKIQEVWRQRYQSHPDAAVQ
Briefly: AlphaScreen or HTRF; GST-PDK1_(1-556) (150 nM) and biotin-GS-022; anti-GST coated acceptor beads and streptavidin-coated donor beads; standard buffer; with or without HYG8. Particulars: both partners purified.

Series [1] deals with the molecule itself. The series is described as follows: STORM-based single-molecule fluorescence intensity; TMR-Star-labelled SNAP-PDK1 diluted and adsorbed on PDDA-coated slides; 50 mM Tris-HCl pH 7.4, 100 mM NaCl, 1 mM DTT; dimers told from monomers by spot intensity.

B1: GST-PDK1_(360-556) (domain or fragment, UniProt O15530 360-556, looked up)
chain: AYLPAMSEDDEDCYGNYDNLLSQFGCMQVSSSSSSHSLSASDTGLPQRSGSNIEQYIHDLDSNSFELDLQFSEDEKRLLLEKQAGGNPWHQFVENNLILKMGPVDKRKGLFARRRQLLLTEGPHLYYVDPVNKVLKGEIPWSQELRPEAKNFKTFFVHTPNRTYYLMDPSGNAHKWCRKIQEVWRQRYQSHPDAAVQ
notes: Cloned into the BamHI-KpnI sites of pEBG2T; also called GST-PDK1-Linker-PH; GST-linker-PH domain; source: HEK293 cells, transient transfection of pEBG2T plasmid, purified, dialyzed to remove GSH
Take B1: the binding result with His-PDK1_(1-556) is “binds”.

B2: biotin-GS-022 (peptide)
peptide: Biotin-RRRQFSLRRKAK
notes: synthetic peptide substrate of PDK1; source: synthetic peptide (Pepscan)
As to B2, the binding result with GST-PDK1_(1-556) was “binds”.

B3: SNAP-PDK1_(50-556) (enzyme, UniProt O15530 50-556, looked up)
chain: AMDGTAAEPRPGAGSLQHAQPPPQPRKKRPEDFKFGKILGEGSFSTVVLARELATSREYAIKILEKRHIIKENKVPYVTRERDVMSRLDHPFFVKLYFTFQDDEKLYFGLSYAKNGELLKYIRKIGSFDETCTRFYTAEIVSALEYLHGKGIIHRDLKPENILLNEDMHIQITDFGTAKVLSPESKQARANSFVGTAQYVSPELLTEKSACKSSDLWALGCIIYQLVAGLPPFRAGNEYLIFQKIIKLEYDFPEKFFPKARDLVEKLLVLDATKRLGCEEMEGYGPLKAHPFFESVTWENLHQQTPPKLTAYLPAMSEDDEDCYGNYDNLLSQFGCMQVSSSSSSHSLSASDTGLPQRSGSNIEQYIHDLDSNSFELDLQFSEDEKRLLLEKQAGGNPWHQFVENNLILKMGPVDKRKGLFARRRQLLLTEGPHLYYVDPVNKVLKGEIPWSQELRPEAKNFKTFFVHTPNRTYYLMDPSGNAHKWCRKIQEVWRQRYQSHPDAAVQ
modifications: SNAP-Cell TMR-Star label on the SNAP-tag
notes: also called TMR-SNAP-PDK1
For B3, in series [1], the binding result is “binds”.

Values taken from PMC7614687, “Modulation of the substrate specificity of the kinase PDK1 by distinct conformations of the full-length protein*” (Science signaling, 2023).
